Test results published in paper PMC548379.

Molecular target: NF-kB p50 (rhNF-kB p50) (Homo sapiens, UniProt P19838 1-433)
Test: competition

Sequence of NF-kB p50 (rhNF-kB p50) (P19838 1-433): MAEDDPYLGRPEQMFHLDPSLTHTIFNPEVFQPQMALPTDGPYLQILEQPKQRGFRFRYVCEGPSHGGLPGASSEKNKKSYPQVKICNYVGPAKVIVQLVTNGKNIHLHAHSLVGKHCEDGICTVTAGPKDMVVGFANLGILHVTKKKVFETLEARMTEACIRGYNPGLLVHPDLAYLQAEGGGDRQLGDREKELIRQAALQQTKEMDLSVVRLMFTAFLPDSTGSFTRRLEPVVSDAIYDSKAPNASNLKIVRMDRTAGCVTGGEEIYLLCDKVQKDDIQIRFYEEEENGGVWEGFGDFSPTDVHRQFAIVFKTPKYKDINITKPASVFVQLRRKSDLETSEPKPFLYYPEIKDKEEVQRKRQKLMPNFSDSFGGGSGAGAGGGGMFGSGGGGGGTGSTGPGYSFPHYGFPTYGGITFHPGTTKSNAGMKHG

| Binder | binding result |
| --- | --- |
| cold NF-kB specific competition probe (dsDNA) DNA 1: AGTTGAGGGGACTTTCCCAGGCTTTTT DNA 2: GCCTGGGAAAGTCCCCTCAACTTTTTT | binds |
| cold NF-kB nonspecific competition probe (dsDNA) DNA 1: AGTTGAGATTACTTTCACCAGGCTTTTT DNA 2: GCCTGTGAAAGTAATCTCAACTTTTTT | no binding |
